Substrate: O=c1ccn([C@@H]2O[C@H](COP(=O)(O)OP(=O)(O)O[C@H]3OC[C@@H](O)[C@H](O)[C@H]3O)[C@@H](O)[C@H]2O)c(=O)[nH]1
Experiment: cells, lysate or membranes
Details: Pichia-expressed; conditions not stated

B1: Pichia-expressed form of XT-I (Homo sapiens) (protein)
chain: PKCDISGKEAISALSRAKSKHCRQEIGETYCRHKLGLLMPEKVTRFCPLEGKANKNVQWDEDSVEYMPANPVRIAFVLVVHGRASRQLQRMFKAIYHKDHFYYIHVDKRSNYLHRQVLQVSRQYSNVRVTPWRMATIWGGASLLSTYLQSMRDLLEMTDWPWDFFINLSAADYPIRTNDQLVAFLSRYRDMNFLKSHGRDNARFIRKQGLDRLFLECDAHMWRLGDRRIPEGIAVDGGSDWFLLNRRFVEYVTFSTDDLVTKMKQFYSYTLLPAESFFHTVLENSPHCDTMVDNNLRITNWNRKLGCKCQYKHIVDWCGCSPNDFKPQDFHRFQQTARPTFFARKFEAVVNQEIIGQLDYYLYGNYPAGTPGLRSYWENVYDEPDGIHSLSDVTLTLYHSFARLGLRRAETSLHTDGENSCRYYPMGHPASVHLYFLADRFQGFLIKHHATNLAVSKLETLETWVMPKKVFKIASPPSDFGRLQFSEVGTDWDAKERLFRNFGGLLGPMDEPVGMQKWGKGPNVTVTVIWVDPVNVIAATYDILIESTAEFTHYKPPLNLPLRPGVWTVKILHHWVPVAETKFLVAPLTFSNRQPIKPEEALKLHNGPLRNAYMEQSFQSLNPVLSLPINPAQVEQARRNAASTGTALEGWLDSLVGGMWTAMDICATGPTACPVMQTCSQTAWSSFSPDPKSELGAVKPDGRLR
Q: Which Km does the source give for B1 here?
A: 300 µM

Reference: paper PMC2850172
